Measurements taken from patent publication US12662540B2, “Compositions and methods for inhibition of MICA/B shedding” (DANA-FARBER CANCER INSTITUTE, INC., priority 2017, dated 2026).

Columns and labels:
MICA = test: ELISA for antibody binding to immobilized MICA extracellular domain (α1-α3 domains; alleles 002, 008, 009, 018); design: species or system human; details: immobilized antigen
Description: ELISA experiments were performed in DELFIA® 96-well plates (Perkin Elmer) or in Nunc Maxisorp 96-wells plates (Thermo Scientific). Wells were coated with antigens by overnight incubation at 4° C. using 100 ng of protein in 100 μl of carbonate buffer, […]. Plates were subsequently washed with 1× Tris-buffered saline-Tween buffer and incubated for 2 hours with 2% bovine serum albumin (BSA) in phosphate buffered saline (PBS), pH 7.4, or DELFIA® Assay Buffer (Perkin Elmer) at room temperature. MICA antibodies were used at 1 μg/ml, unless indicated otherwise. Isotype controls were MPC-11 (mIgG2b) and MOPC-21 (mIgG1), but only MPC-11 is shown in the figures, given that no differences were observed between these controls. Human isotype control was a recombinant human IgG1 antibody (BE0096, BioXcell). Biotinylated goat anti-mouse IgG (Poly4053—Biolegend) was used as the secondary antibody which was followed by streptavidin-Europium (Perkin Elmer) and DELFIA® Enhancement Solution (Perkin Elmer). Europium fluorescence was quantified using an EnVision® microplate reader (Perkin Elmer). The HRP-conjugated secondary antibodies were Novex® Goat anti-human IgG (A24470, Life Technologies), Goat anti-mouse IgG1 (1070-05), IgG2a (1080-08), IgG2b (1090-05), and IgG3 (1100-05), and Goat anti-mouse IgG (31430, Thermo Scientific). […] Absorbance was read at 450 nm.

CT26-MICA = test: CT26 metastasis model; format: in vivo, Balb/c mice; details: antibody days 1, 2, 7, 14; count day 21
Description: (§1) Balb/c wild type mice were injected intravenously with 1×10^6 CT26-MICA, and treated with 7C6-mIgG2b or MPC-11 (isotype) administered intraperitoneally on days 1, 2, 7, and 14. Euthanasia was performed on day 21, followed by lung perfusion with 30% Indian ink through the trachea and fixation in Fekete's fixative. That procedure stains the lungs in black, while the metastases remain white, enabling counting of metastases under a stereomicroscope (24).
as §1, with “stereomicroscope.” for “stereomicroscope (24).”

NKG2D binding to MICA = NKG2D binding to MICA (Homo sapiens, UniProt Q29983, C59Y/G229S/K148E/K196E/M152V/Q274R/S238T/T236I/T47A/W233R); test: Bead assay for NKG2D receptor binding to MICA; details: MICA (allele 008) beads, human NKG2D-Fc dimer 10 μg/ml
Chain of NKG2D binding to MICA (Q29983 24-307 T47A/C59Y/K148E/M152V/K196E/G229S/W233R/T236I/S238T/Q274R): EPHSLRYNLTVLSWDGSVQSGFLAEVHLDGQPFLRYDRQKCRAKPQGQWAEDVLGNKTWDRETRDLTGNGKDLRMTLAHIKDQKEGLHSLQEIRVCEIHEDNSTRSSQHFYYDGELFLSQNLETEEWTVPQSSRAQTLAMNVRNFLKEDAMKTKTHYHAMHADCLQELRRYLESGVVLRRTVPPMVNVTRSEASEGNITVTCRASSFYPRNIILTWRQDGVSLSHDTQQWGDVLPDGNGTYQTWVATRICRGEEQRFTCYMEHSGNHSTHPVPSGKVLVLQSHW
Description: Streptavidin-conjugated C4 beads (BD Pharmingen) were incubated for 2 hours with MICA biotinylated at a C-terminal BirA site (200 ng of MICA per 10,000 beads). Beads were then washed with PBS containing 1% FBS. For the NKG2D receptor binding assay, chimeric human NKG2D-Fc dimer (1299-NK-050, R&D Systems) was conjugated with Alexa^488 (A10468, Molecular Probes) and used at 10 μg/ml. Binding of murine NKG2D to human MICA was measured using NKG2D-Fc dimers (10 μg/ml) followed by an Alexa^488-conjugated anti-human IgG (Molecular Probes) that bound to the Fc region of the NKG2D-Fc dimer. MICA antibodies were also used as competitors for NKG2D dimer binding at concentrations of 10, 30 and 100 μg/ml. In these assays, NKG2D dimer and MICA antibodies were co-incubated with biotinylated MICA*008-conjugated beads.

A375 cells = test: NK cell cytotoxicity assay (51Cr release), human NK cells against human tumor cells; format: cell-based; details: human NK cells; antibody added at time of killing assay (10 μg/ml, 66.7 nM)
Description: Human NK cells were isolated from fresh leukapheresis blood collars that had been generated by Brigham & Women's Hospital, Boston, from healthy donors. Samples were diluted with an equal volume of PBS and blood mononuclear cells were isolated by Ficoll density gradient centrifugation. Cells were washed with PBS, and NK cells were isolated by negative selection using the Human NK Cell Isolation Kit (130-092-657, Miltenyi Biotech) using an autoMACS system (Miltenyi Biotech). Enriched NK cells (purity of 50-90%) were then incubated with anti-CD56 (PE or APC conjugated) and anti-CD3 (FITC or Pacific Blue conjugated) (Biolegend) and sorted using a BD FACS Aria. Following sorting, NK cell purity was ˜99%. These cells were cultured for twelve hours in complete RPMI media supplemented with 300-1000 U/ml of recombinant human IL-2 (BD Pharmingen).
Target cells were labeled for 1 hour with 100 μCi of ^51[Cr] per 2×10^6 cells in 0.2 ml of media. Subsequently, cells were washed and plated in V-bottom 96-wells plates (5,000 target cells per well). To determine the experimental release, NK cells were added in an equal volume, but at different ratios. To determine maximum and spontaneous release, target cells were mixed with an equal volume of 2% Triton-X100 in PBS or an equal volume of media, respectively. Antibodies were added at a final concentration of 10 μg/ml.
For experiments shown in FIGS. 1E, 10, and 13E antibodies were added at the time of the killing assay. For FIGS. 3A-B, antibodies were added to tumor cells 48 hours prior to labelling with ^51[Cr] to inhibit MICAS shedding. The isotype control antibody for assays with human NK cells was recombinant human IgG1 Fc (BE0096, BioXcell). […] At the end of the incubation period, plates were centrifuged (2000 rpm, 5 minutes), part of the supernatant was collected, mixed with scintillation fluid, and radioactivity was quantified using a MicroBeta2 reader (Perkin Elmer). Specific killing was calculated using the following formula: 100×(Experimental release−Spontaneous release)/(Maximum release−Spontaneous release).

RPMI-8226 cell line = test: Proteasome inhibitor combination with MICA/B antibody, multiple myeloma cell lines; format: cell-based, human

B1: 7C6: monoclonal antibody from mice immunized with recombinant MICA α3 domain; parental mIgG2b; VH SEQ ID NO: 7, VL SEQ ID NO: 8 (antibody)
VH: QIQLVQSGPELKKPGETVKVSCKASGYMFTNYAMNWVKQAPEKGLKWMGWINTHTGDPTYADDFKGRIAFSLETSASTAYLQINNLKNEDTATYFCVRTYGNYAMDYWGQGTSVTVSSAKTTAPSVYPLAPVCGDTTGSSVTLGCLVKGYFPEPVTLTWNSGSLSSGVHTFPAVLQSDLYTLSSSVTVTSS
VL: DIQMTQTTSSLSASLGDRVTISCSASQDISNYLNWYQQKPDGTVKLLIYDTSILHLGVPSRFSGSGSGTDYSLTISNLEPEDIATYYCQQYSKFPRTFGGGTTLEIK
modifications: mAb 7C6 heavy chain amino acid sequence; mAb 7C6 light chain amino acid sequence
MICA
  binding to MICA full-length extracellular domain: also the full-length extracellular domain
CT26-MICA
  activity against CT26-MICA lung metastases: demonstrated efficacy in a lung metastasis model
NKG2D binding to MICA
  inhibition of NKG2D receptor binding to MICA: do not inhibit NKG2D receptor binding
A375 cells
  NK cell mediated cytotoxicity against human tumor cells: increases NK cell cytotoxicity
RPMI-8226 cell line; 1 nM bortezomib, versus PBS+Isotype
  human NK cell cytotoxicity against RPMI-8226, bortezomib plus antibody: Human NK cell cytotoxicity is increased
RPMI-8226 cell line; RPMI-8226, 24 hours, 10 mg/ml 7C6
  surface MICA/B, antibody plus proteasome inhibitor: expresses higher levels of surface MICA/B
